Bridge positions count the residues as written; N and C are the ends. Ends that are not written are not given here.
B2: recombinant His-tag CRKL (rCRKL) (other)
chain: MSSARFDSSDRSAWYMGPVSRQEAQTRLQGQRHGMFLVRDSSTCPGDYVLSVSENSRVSHYIINSLPNRRFKIGDQEFDHLPALLEFYKIHYLDTTTLIEPAPRYPSPPMGSVSAPNLPTAEDNLEYVRTLYDFPGNDAEDLPFKKGEILVIIEKPEEQWWSARNKDGRVGMIPVPYVEKLVRSSPHGKHGNRNSNSYGIPEPAHAYAQPQTTTPLPAVSGSPGAAITPLPSTQNGPVFAKAIQKRVPCAYDKTALALEVGDIVKVTRMNINGQWEGEVNGRKGLFPFTHVKIFDPQNPDENE
notes: Open reading frame of full-length CRKL cDNA cloned in pET28a, expressed in BL21; also called recombinant CRKL; rCKRL protein; not shown: His-tag from pET28a vector
B3: IL11 receptor of DU145 cells (receptor, human, UniProt Q14626 23-422, looked up)
chain: SSPCPQAWGPPGVQYGQPGRSVKLCCPGVTAGDPVSWFRDGEPKLLQGPDSGLGHELVLAQADSTDEGTYICQTLDGALGGTVTLQLGYPPARPVVSCQAADYENFSCTWSPSQISGLPTRYLTSYRKKTVLGADSQRRSPSTGPWPCPQDPLGAARCVVHGAEFWSQYRINVTEVNPLGASTRLLDVSLQSILRPDPPQGLRVESVPGYPRRLRASWTYPASWPCQPHFLLKFRLQYRPAQHPAWSTVEPAGLEEVITDAVAGLPHAVRVSARDFLDAGTWSTWSPEAWGTPSTGTIPKEIPAWGQLHTQPEVEPQVDSPAPPRPSLQPHPRLLDHRDSVEQVAVLASLGILSFLGLVAGALALGLWLRLRRGGKDGSPKPGFLASVIPVDRRPGAPNL
notes: whole, on cells; Unrelated transmembrane receptor, control of the co-immunoprecipitation
B4: β3 integrin of DU145 cells (receptor, human, UniProt P05106 27-788, looked up)
chain: GPNICTTRGVSSCQQCLAVSPMCAWCSDEALPLGSPRCDLKENLLKDNCAPESIEFPVSEARVLEDRPLSDKGSGDSSQVTQVSPQRIALRLRPDDSKNFSIQVRQVEDYPVDIYYLMDLSYSMKDDLWSIQNLGTKLATQMRKLTSNLRIGFGAFVDKPVSPYMYISPPEALENPCYDMKTTCLPMFGYKHVLTLTDQVTRFNEEVKKQSVSRNRDAPEGGFDAIMQATVCDEKIGWRNDASHLLVFTTDAKTHIALDGRLAGIVQPNDGQCHVGSDNHYSASTTMDYPSLGLMTEKLSQKNINLIFAVTENVVNLYQNYSELIPGTTVGVLSMDSSNVLQLIVDAYGKIRSKVELEVRDLPEELSLSFNATCLNNEVIPGLKSCMGLKIGDTVSFSIEAKVRGCPQEKEKSFTIKPVGFKDSLIVQVTFDCDCACQAQAEPNSHRCNNGNGTFECGVCRCGPGWLGSQCECSEEDYRPSQQDECSPREGQPVCSQRGECLCGQCVCHSSDFGKITGKYCECDDFSCVRYKGEMCSGHGQCSCGDCLCDSDWTGYYCNCTTRTDTCMSSNGLLCSGRGKCECGSCVCIQPGSYGDTCEKCPTCPDACTFKKECVECKKFDRGALHDENTCNRYCRDEIESVKELKDTGKDAVNCTYKNEDDCVVRFQYYEDSSGKSILYVVEEPECPKGPDILVVLLSVMGAILLIGLAALLIWKLLITIHDRKEFAKFEEERARAKWDTANNPLYKEATSTFTNITYRGT
notes: whole, on cells; Control of the co-immunoprecipitation; also called other integrins (anti-β3)

Columns and labels:
[1] = target: T1, β1 integrin of DU145 cells (membrane fraction / cell surface) (human, UniProt P05556 21-798); experiment: reciprocal co-immunoprecipitation, DU145 membrane fractions
T1 construct: Native β1 chain of human DU145 cells

[2] = target: B3; experiment: as above
[3] = target: B4; experiment: as above
[4] = target: T2, β5 integrin of DU145 cells (human, UniProt P18084 24-799); experiment: as above
T2 construct: whole, on cells; Control of the co-immunoprecipitation; also called other integrins (anti-β5)

αvβ3 integrin (Chemicon) = target: T3, αvβ3 integrin (Chemicon) (UniProt P06756 31-1048; P05106 27-788); experiment: CRKL on wells coated with integrin at 1 µg/well, anti-CRKL detection (FIG. 5)
T3 construct: Bought protein coated at 1 µg/well; also called control integrin
Description: (§1) Phage binding assays on purified proteins were carried out as described (Giordano et al. 2001). Recombinant proteins were coated on microtiter wells as previous described (Cardo-Vila et al., 2003; Smith and Scott, 1993). Briefly, proteins were immobilized on microtiter wells overnight at 4° C. 50 μl of 1 μg/ml in PBS. Wells were washed twice with PBS, blocked with PBS containing 3% BSA for 2 hours at room temperature, and incubated with 10⁹ T.U. wild-type tumor-homing phage ([…]; SEQ ID NO:1), scrambled phage ([…] (SEQ ID NO:26), […] (SEQ ID NO:27), […] (SEQ ID NO:29), […] (SEQ ID NO:30)), mutant phage ([…] (SEQ ID NO:25), […] (SEQ ID NO:28)), PSI-derived cyclic phage ([…]; SEQ ID NO:23) or fd-tet phage in 50 μl of PBS containing 1.5% BSA. After 1 hour at room temperature, wells were washed ten times with PBS and phage were recovered by bacterial infection. ELISA with polyclonal anti-CKRL confirmed the presence and concentration of the CKRL recombinant proteins on the wells. To test the binding of the tumor-homing phage to SH3 containing proteins, microtiter-wells were coated at 4° C. overnight with 250 μg/ml of recombinant gst-SH3 domains (CKRL-D1, CKRL-D2, grb2-D1, grb2-D2, Lyn, src; Pronomics), rCKRL protein, and negative controls gst or BSA. […] After 3 hours, binding of CKRL to integrins was detected by using an anti-CKRL antibody followed by an HRP-conjugated anti-rabbit IgG. […]

αvβ5 integrin (Chemicon) = target: T4, αvβ5 integrin (Chemicon) (UniProt P06756 31-1048; P18084 24-799); experiment: as above
T4 construct: Bought protein coated at 1 µg/well; also called control integrin
Description: as §1

[5] = target: B2; experiment: ELISA, His-tag protein on coated synthetic peptide (FIG. 3A)
Description: (§2) Synthetic tumor-homing peptide ([…]; SEQ ID NO:1) or PSI-derived peptide ([…]; SEQ ID NO:23) were coated on microtiter plates followed by blocking, and washing. The following recombinant His-tag proteins were added to the coated plates: rCRKL, rCRKL-SH2 domain, rCRKL-SH3 (N) domain, and rCRKL-SH3 (C) domain. An unrelated control protein (α2-Heremans-Schmid glycoprotein; AHSG) served as a negative control. The mixtures were incubated, washed, and labeled with the appropriate antibodies. Secondary antibodies conjugated to horse-radish peroxidase (HRP) were added followed by adding TMB substrate (Calbiochem), and analyzed by an automated ELISA reader (Bio-Tek). To determine the inhibitory activity of the tumor-homing peptide, the PSI-derived peptide, or the phage clone displaying the corresponding tumor-homing peptide were incubated with the rCRKL-SH3 (C) domain. Unrelated cyclic peptide sequences and insertless phage (fd-tet) served as negative controls. The admixtures were incubated and added to wells coated with the tumor-homing peptide. After incubation, the wells were washed, labeled with the appropriate antibodies, and processed as above.

[6] = target: B2; experiment: ELISA, His-tag protein on coated synthetic peptide
Description: as §2

T1 sequence (P05556 21-798 limits assumed): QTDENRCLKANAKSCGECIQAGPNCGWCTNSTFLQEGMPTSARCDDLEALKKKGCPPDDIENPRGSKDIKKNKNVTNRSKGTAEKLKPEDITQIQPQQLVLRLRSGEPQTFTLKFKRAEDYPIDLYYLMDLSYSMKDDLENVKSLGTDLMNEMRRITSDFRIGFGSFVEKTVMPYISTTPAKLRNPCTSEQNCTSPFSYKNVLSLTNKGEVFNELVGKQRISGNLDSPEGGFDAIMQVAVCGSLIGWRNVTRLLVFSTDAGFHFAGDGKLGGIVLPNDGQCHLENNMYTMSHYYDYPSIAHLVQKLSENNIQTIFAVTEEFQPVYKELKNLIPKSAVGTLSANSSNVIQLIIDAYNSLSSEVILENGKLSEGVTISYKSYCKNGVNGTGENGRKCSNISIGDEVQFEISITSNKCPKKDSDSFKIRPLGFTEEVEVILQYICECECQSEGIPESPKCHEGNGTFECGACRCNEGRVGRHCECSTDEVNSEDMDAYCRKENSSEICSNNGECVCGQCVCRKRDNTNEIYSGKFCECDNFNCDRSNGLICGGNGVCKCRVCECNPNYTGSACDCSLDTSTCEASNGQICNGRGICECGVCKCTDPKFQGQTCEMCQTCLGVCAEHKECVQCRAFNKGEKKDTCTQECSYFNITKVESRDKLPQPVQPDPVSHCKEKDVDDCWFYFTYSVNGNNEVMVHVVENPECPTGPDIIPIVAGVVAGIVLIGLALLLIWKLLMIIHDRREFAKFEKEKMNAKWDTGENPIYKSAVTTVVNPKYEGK
T4 sequence (P06756 31-1048, chain 1 of 2): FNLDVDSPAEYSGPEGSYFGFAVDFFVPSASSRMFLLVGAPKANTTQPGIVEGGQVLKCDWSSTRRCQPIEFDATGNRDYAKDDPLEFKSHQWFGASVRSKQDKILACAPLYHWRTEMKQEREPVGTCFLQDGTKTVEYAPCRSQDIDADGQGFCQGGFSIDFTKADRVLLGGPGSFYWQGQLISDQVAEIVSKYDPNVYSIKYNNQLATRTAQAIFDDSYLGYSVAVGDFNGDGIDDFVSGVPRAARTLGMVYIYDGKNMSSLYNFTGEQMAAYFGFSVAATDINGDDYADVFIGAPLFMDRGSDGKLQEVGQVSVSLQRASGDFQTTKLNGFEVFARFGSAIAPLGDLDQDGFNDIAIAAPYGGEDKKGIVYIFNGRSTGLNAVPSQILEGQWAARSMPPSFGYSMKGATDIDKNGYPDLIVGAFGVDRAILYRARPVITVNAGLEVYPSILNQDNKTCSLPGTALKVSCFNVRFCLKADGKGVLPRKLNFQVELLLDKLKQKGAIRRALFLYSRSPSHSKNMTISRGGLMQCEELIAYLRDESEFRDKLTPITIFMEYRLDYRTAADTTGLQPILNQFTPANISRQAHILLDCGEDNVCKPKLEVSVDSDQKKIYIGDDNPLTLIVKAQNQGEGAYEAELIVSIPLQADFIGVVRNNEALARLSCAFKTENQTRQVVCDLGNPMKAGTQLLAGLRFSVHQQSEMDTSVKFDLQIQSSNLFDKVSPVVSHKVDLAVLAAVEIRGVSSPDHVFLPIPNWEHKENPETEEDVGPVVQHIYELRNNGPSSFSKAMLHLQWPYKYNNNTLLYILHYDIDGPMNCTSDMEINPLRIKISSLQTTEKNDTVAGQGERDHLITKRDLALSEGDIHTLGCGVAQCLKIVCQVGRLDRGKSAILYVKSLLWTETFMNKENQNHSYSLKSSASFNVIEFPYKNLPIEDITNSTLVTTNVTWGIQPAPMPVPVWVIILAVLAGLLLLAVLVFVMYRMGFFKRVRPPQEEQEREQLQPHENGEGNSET
T4 sequence (P18084 24-799, chain 2 of 2): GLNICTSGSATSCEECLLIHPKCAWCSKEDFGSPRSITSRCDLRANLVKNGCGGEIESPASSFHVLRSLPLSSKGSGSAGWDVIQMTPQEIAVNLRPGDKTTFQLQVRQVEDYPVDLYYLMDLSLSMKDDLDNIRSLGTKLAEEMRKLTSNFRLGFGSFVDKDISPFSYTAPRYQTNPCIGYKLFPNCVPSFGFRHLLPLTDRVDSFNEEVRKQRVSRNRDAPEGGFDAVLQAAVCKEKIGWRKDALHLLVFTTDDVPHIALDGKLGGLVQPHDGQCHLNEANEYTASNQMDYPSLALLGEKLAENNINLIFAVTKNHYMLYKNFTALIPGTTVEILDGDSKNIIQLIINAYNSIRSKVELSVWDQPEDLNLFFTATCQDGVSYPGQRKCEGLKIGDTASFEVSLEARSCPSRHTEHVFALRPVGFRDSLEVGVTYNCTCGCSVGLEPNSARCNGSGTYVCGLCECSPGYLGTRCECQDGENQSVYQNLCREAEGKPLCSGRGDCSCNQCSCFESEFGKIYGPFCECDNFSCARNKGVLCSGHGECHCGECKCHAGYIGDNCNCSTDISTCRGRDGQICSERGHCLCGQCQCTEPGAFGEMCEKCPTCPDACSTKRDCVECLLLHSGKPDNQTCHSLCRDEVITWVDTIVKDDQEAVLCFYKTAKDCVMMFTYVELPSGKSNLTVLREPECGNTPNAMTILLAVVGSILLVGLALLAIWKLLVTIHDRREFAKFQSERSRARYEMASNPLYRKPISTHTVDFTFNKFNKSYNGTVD
T3 sequence (P06756 31-1048, one chain of several): as the sequence (P06756 31-1048, chain 1 of 2) above
T2 sequence (P18084 24-799): as the sequence (P18084 24-799, chain 2 of 2) above

B1: CRKL of DU145 cells (cell extract, membrane fraction, cell surface or serum-free condition medium) (other)
chain: MSSARFDSSDRSAWYMGPVSRQEAQTRLQGQRHGMFLVRDSSTCPGDYVLSVSENSRVSHYIINSLPNRRFKIGDQEFDHLPALLEFYKIHYLDTTTLIEPAPRYPSPPMGSVSAPNLPTAEDNLEYVRTLYDFPGNDAEDLPFKKGEILVIIEKPEEQWWSARNKDGRVGMIPVPYVEKLVRSSPHGKHGNRNSNSYGIPEPAHAYAQPQTTTPLPAVSGSPGAAITPLPSTQNGPVFAKAIQKRVPCAYDKTALALEVGDIVKVTRMNINGQWEGEVNGRKGLFPFTHVKIFDPQNPDENE
notes: Native protein from human DU145 prostate cancer cells; also called secreted CRKL; extracellular CRKL
B1: binds [1]; no binding [2]; no binding [3]. B1: no binding [4].

B2: no binding (αvβ3 integrin (Chemicon)); no binding (αvβ5 integrin (Chemicon)).

B3: no binding [1].

B4: no binding [1].

YRCTLNSPFFWEDMTHECHA (disulfide 3-18 (inferred), also called PSI domain-mimic peptide) [synthetic tumor-homing peptide YRCTLNSPFFWEDMTHECHA (SEQ ID NO:1)]: binds [5].

B5: synthetic PSI-derived peptide NSTFLQEGMPTSA (SEQ ID NO:23) (peptide)
peptide: NSTFLQEGMPTSA
notes: also called β1 integrin PSI-derived peptide
B5: binds [6].
